Measurements from patent publication US20160130302A1.
Positions of bridges follow the written chain, without caps; N, C: chain ends. Chains are numbered I, II in the order given. No end group written: not given here.

T1: ψPDK peptide (ALSTER), non-TAT conjugated
T1 sequence: ALSTER

B1: ψPDK-Cs-sC-TAT (ψPDK linked to TAT47-57 by a disulfide bond) (peptide)
peptide: ALSTERC-NH2
chain: YGRKKRRQRRRC-NH2
modifications: disulfide I:7-II:12; N-terminus assumed
SMILES: CC(C)C[C@H](NC(=O)[C@H](C)N)C(=O)N[C@@H](CO)C(=O)N[C@H](C(=O)N[C@@H](CCC(=O)O)C(=O)N[C@@H](CCCNC(=N)N)C(=O)N[C@@H](CSSC[C@H](NC(=O)[C@H](CCCNC(=N)N)NC(=O)[C@H](CCCNC(=N)N)NC(=O)[C@H](CCCNC(=N)N)NC(=O)[C@H](CCC(N)=O)NC(=O)[C@H](CCCNC(=N)N)NC(=O)[C@H](CCCNC(=N)N)NC(=O)[C@H](CCCCN)NC(=O)[C@H](CCCCN)NC(=O)[C@H](CCCNC(=N)N)NC(=O)CNC(=O)[C@@H](N)Cc1ccc(O)cc1)C(N)=O)C(N)=O)[C@@H](C)O

Experiments:
[1] = test system: T1, ψPDK peptide (ALSTER), non-TAT conjugated
[2] = test system: ψPDK-Cs-sC-TAT (ψPDK linked to TAT47-57 by a disulfide bond)
[3] = molecular target: rat δPKC (endogenous, in perfused rat hearts) (rat) (UniProt P09215); test: cell-based or functional assay
[4] = molecular target: rat δPKC (endogenous, in perfused rat hearts) (rat), P09215; test: cell-based or functional assay
Chain of rat δPKC (endogenous, in perfused rat hearts) (rat), P09215 (P09215 whole entry, stated change not applied, the tested form may be a part): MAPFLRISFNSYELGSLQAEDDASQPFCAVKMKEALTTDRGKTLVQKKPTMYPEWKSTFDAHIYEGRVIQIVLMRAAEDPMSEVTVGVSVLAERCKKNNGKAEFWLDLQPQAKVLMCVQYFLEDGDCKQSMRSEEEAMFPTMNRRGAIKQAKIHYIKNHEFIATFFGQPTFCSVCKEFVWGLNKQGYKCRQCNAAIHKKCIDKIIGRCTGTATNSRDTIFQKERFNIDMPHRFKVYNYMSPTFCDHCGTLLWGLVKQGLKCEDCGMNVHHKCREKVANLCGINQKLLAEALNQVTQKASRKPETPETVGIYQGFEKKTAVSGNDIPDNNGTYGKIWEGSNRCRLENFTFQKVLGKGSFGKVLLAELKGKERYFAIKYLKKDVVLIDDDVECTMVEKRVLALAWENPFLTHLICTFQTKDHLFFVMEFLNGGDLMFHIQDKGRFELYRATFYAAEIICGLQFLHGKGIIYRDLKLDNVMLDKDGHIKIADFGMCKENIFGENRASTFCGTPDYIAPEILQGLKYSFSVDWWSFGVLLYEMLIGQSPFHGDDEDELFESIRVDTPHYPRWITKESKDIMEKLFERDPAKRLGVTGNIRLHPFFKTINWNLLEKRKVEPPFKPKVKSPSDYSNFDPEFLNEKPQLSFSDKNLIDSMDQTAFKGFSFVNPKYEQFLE

Chain of rat δPKC (endogenous, in perfused rat hearts) (rat) (P09215 whole entry, stated change not applied, the tested form may be a part): as above

Molecule | CPK (u/L) [3] | p-JNK/total JNK [3] | other results
human recombinant δPKC (Invitrogen) |  |  | in vitro phosphorylation of Drp1 by δPKC [1]: ψPDK did not affect Drp1 phosphorylation; δPKC phosphorylation of PDK (in vitro kinase assay) [1]: ψPDK inhibited δPKC phosphorylation of PDK by ˜30%
mouse δPKC (endogenous, in fibroblasts from wild-type mice) |  |  | MARCKS phosphorylation in wild-type fibroblasts [2]: increased MARCKS phosphorylation relative to the control peptide
p192 (AASTER), TAT-conjugated (peptide) | 1270 u/L | 0.7 | 
p193 (ALATER), TAT-conjugated (peptide) | 1160 u/L | 0.7 | 
p194 (ALSAER), TAT-conjugated (peptide) | 886 u/L | 0.6 | 
p195 (ALSTAR), TAT-conjugated (peptide) | 913 u/L | 0.7 | 
p196 (ALSTEA), TAT-conjugated (peptide) | 926 u/L | 0.9 | 
p197 (ALST(p)ER), TAT-conjugated (peptide) | 803 u/L | 0.7 | 
p198 (ALS(p)TER), TAT-conjugated (peptide) | 1170 u/L | 0.9 | 
p199 (ALS(p)T(p)ER), TAT-conjugated (peptide) | 842 u/L | 0.6 | 
rat δPKC (endogenous, in perfused rat hearts) |  |  | I/R-induced MARCKS phosphorylation in hearts [2]: an increase in I/R-induced MARCKS phosphorylation was observed in the presence of ψPDK, as compared with control peptide; phosphorylation of PDK2 and of the E1 subunit of PDH after I/R (2-D IEF) [2]: the phosphorylation of those two enzymes (shown by a shift to acidic pH by 2-D IEF analysis) did not occur in the presence of either ψPDK or in the presence of δV1-1
B1 |  |  | CPK (u/L) [4]: 335 u/L; p-JNK/total JNK [4]: 0.4; δPKC association with the mitochondria after I/R [4]: 2 fold
